The text below walks through data of publication doi:10.64898/2025.12.30.697032.

The target of this experiment is cauliflower mitoribosome small subunit (cauliflower (B. oleracea)). The experiment is described as follows: cryo-EM structure; in vitro reconstitution (first reaction): 2.7 ug/uL mtSSU, 500 nM rps3 mRNA (51 nt), 500 nM mtIF3, 2 min at 37 °C, then 10 min on ice; Initiation buffer (20 mM HEPES-KOH pH 7.6, 75 mM KCl, 40 mM MgCl2); gives mtPIC-1 and mtPIC-2.

B1: Arabidopsis mitochondrial initiation factor 3 (natural protein)
chain: MAIWRIINRSYLKYASNQLTRNYYTQVCLASSTHVVKQTTKLSSFDIPNSDICTRPSNIFQNLRFLATSAQTRKKEAEVDSDGPRLNEKITGDYVRLVSEEGHCVVSLREALRRAKELQCDLVEVQRDAKPPVCKIVKYSLELYKKAKVGKERAKAKRAEAIRPDIKEIRFTPKIEAKDLKFKSDQALKLMESGYRVKCLAVPDKDKHKELEPEKLLELLFRFTCFIGDALVESWPEADRKGAVVIVRHAKFGPPKKGGVKLMKDIDIKSARVKEESPKPDSSKAGVATVDDQEDIEKSEPRFSVEQAQPVKFQNAYAKREPSSEFSGGRDASRFEPQSPNQHVNPQRPRFSNQAPNQQPTGRFDPQSPNQPPSAPRPQFPNQQPTGRFDPQFPSQPPRPQFPNQAPNQQSTGRFNPQFPNQRPSPPQSRFPDQAPNQQPSGPSPNRHPDRQGPPPRFQNQAPNQQPTGRFEPQPPNPPRAPPRPQTRLPNETSNEQPTAPGRSSGPASGYGIFSTPKTK
The molecule B1 gave a percent of mtSSU particles accommodating mtIF3 of 70%.
